Laboratory results from the supplement of paper PMC10126150.
± gives the standard deviation of the averaged measurements.

Each sequence was assayed on ATP (assay: switch fluorescence ratio, 500 uM ATP over buffer (Cy3 cluster intensity, sum of 5 cycles each) (fold (ratio)); higher = stronger signal-on switching upon ATP binding; sequences stand for … in TCGTCGGCAGCGTCAGATGTGTATAAGAGACAGTTTTTTTTTTTTTTTTTTTTTTTTT…TC). Conditions: aptamer strand: ATP DNA aptamer (quencher-CACCTGGGGGAGTATTGCGGAGGAAGG + anchor), 100 nM annealed; ATP concentration: 500 uM.
How it was run: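 Clusters with intensities outside 100-1000 RFU were excluded. The remaining Cy3-labelled switching-strand clusters on a modified Illumina MiSeq flow-cell had been annealed to 100 nM quencher-labelled ATP aptamer and imaged in selection buffer, then after 15 min with 500 uM ATP at 22 °C, for five cycles separated by NaOH stripping and re-annealing. The fluorescence ratio, averaged per switch-domain sequence, is each cluster's summed target-cycle Cy3 intensity over its summed buffer-cycle Cy3 intensity.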
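Also: ATP exposure 15 min at 22 °C before imaging.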

Row | Sequence | switch fluorescence ratio
1 | TGCTAGCTAT | 1.02 ± 0.0029
2 | TGCTAGGGAA | 0.975 ± 0.015
3 | TGCTAGGGAT | 1.01 ± 0.029
4 | TGCTAGGGTA | 0.985 ± 0.012
5 | TGCTAGGGTT | 1 ± 0.032
6 | TGCTAGTTCT | 0.99 ± 0.016
7 | TGCTATGGGC | 1.01 ± 0.017
8 | TGCTATTGTG | 0.959 ± 0.02
9 | TGCTATTTAC | 1.1 ± 0.069
10 | TGCTCCTTAG | 1.07 ± 0.03
11 | TGCTCGTATA | 0.9852 ± 0.0062
12 | TGCTCGTGCT | 1.01 ± 0.028
13 | TGCTCTAAGG | 1.02 ± 0.046
14 | TGCTCTTTCA | 1 ± 0.025
15 | TGCTGAAGGA | 0.9743 ± 0.0064
16 | TGCTGCCGGT | 1.02 ± 0.096
17 | TGCTGCGACG | 1.003 ± 0.0022
18 | TGCTGCTACC | 1.07 ± 0.037
19 | TGCTGGAGCT | 1.06 ± 0.022
20 | TGCTGGGGGC | 0.971 ± 0.022
21 | TGCTGGGGTA | 0.99 ± 0.024
22 | TGCTGTAGGG | 0.966 ± 0.053
23 | TGCTGTGGAA | 1.011 ± 0.0096
24 | TGCTTGCAAA | 1.06 ± 0.069
25 | TGCTTGGGGG | 0.979 ± 0.016

Row | Sequence | switch fluorescence ratio
26 | TGCTTGGGTC | 1.01 ± 0.028
27 | TGCTTGTGTT | 0.9912 ± 0.0064
28 | TGCTTGTTAC | 1.03 ± 0.018
29 | TGCTTTAGGT | 0.9922 ± 0.0092
30 | TGCTTTATAT | 1.18 ± 0.29
31 | TGCTTTTGGG | 0.976 ± 0.0021
32 | TGCTTTTTCA | 0.9895 ± 0.0042
33 | TGGAAAGCCT | 1.05 ± 0.1
34 | TGGAAAGTGG | 0.9818 ± 0.005
35 | TGGAAAGTTT | 1 ± 0.052
36 | TGGAAATACG | 1.06 ± 0.013
37 | TGGAACGGAG | 0.98 ± 0.021
38 | TGGAACGGTT | 1.04 ± 0.047
39 | TGGAAGCGTT | 0.98 ± 0.041
40 | TGGAATGCGC | 1.24 ± 0.36
41 | TGGAATTAGC | 1.04 ± 0.054
42 | TGGAATTGCC | 1.024 ± 0.0089
43 | TGGAATTGGT | 1.02 ± 0.032
44 | TGGAATTGTT | 1 ± 0.026
45 | TGGACAATGG | 1.03 ± 0.051
46 | TGGACCCGGC | 0.9858 ± 0.0054
47 | TGGACGTGAT | 1.83 ± 1
48 | TGGACTACGC | 1.06 ± 0.012
49 | TGGACTAGGG | 0.975 ± 0.049
50 | TGGACTGGGG | 0.9861 ± 0.0056

Row | Sequence | switch fluorescence ratio
51 | TGGACTTGGT | 0.97 ± 0.017
52 | TGGAGAGGAT | 0.9825 ± 0.0026
53 | TGGAGATTGT | 0.943 ± 0.032
54 | TGGAGGAAGA | 1.04 ± 0.055
55 | TGGAGGAGCG | 0.955 ± 0.036
56 | TGGAGGGATG | 1.01 ± 0.054
57 | TGGAGGGATT | 1.02 ± 0.013
58 | TGGAGGGGGA | 0.999 ± 0.038
59 | TGGAGGGTTG | 1 ± 0.026
60 | TGGAGGGTTT | 1.07 ± 0.1
61 | TGGAGGTGTT | 1.03 ± 0.035
62 | TGGAGTAGAT | 0.986 ± 0.038
63 | TGGAGTCAGG | 1.05 ± 0.049
64 | TGGAGTGTGG | 0.912 ± 0.087
65 | TGGATAAAGT | 0.985 ± 0.013
66 | TGGATAAGCG | 1 ± 0.032
67 | TGGATAAGTG | 0.998 ± 0.048
68 | TGGATACCCT | 1.0117 ± 0.00031
69 | TGGATATTTA | 0.978 ± 0.012
70 | TGGATCACTT | 1.01 ± 0.028
71 | TGGATCATAG | 0.999 ± 0.038
72 | TGGATCTTAT | 1.01 ± 0.034
73 | TGGATGAATT | 0.9981 ± 0.0045
74 | TGGATGATGG | 0.961 ± 0.019
75 | TGGATTACTT | 1.02 ± 0.026

Row | Sequence | switch fluorescence ratio
76 | TGGATTAGGC | 1.01 ± 0.048
77 | TGGATTTAAT | 1.01 ± 0.049
78 | TGGATTTCGC | 1 ± 0.027
79 | TGGATTTTTG | 0.9666 ± 0.0042
80 | TGGCACGACA | 1.09 ± 0.042
81 | TGGCACTTTT | 1.006 ± 0.0063
82 | TGGCAGCAGG | 1 ± 0.024
83 | TGGCAGGCAC | 1.04 ± 0.012
84 | TGGCATCGGG | 1.01 ± 0.042
85 | TGGCCAAATT | 1.03 ± 0.019
86 | TGGCCGGCTT | 1.044 ± 0.0066
87 | TGGCCGTCAT | 0.98 ± 0.032
88 | TGGCCTTATT | 0.992 ± 0.011
89 | TGGCCTTGTG | 1.02 ± 0.051
90 | TGGCGAAGTT | 0.997 ± 0.024
91 | TGGCGAGGCG | 1.046 ± 0.0077
92 | TGGCGCGTAC | 1.81 ± 0.095
93 | TGGCGGGGCT | 0.9972 ± 0.0064
94 | TGGCGTGGGG | 1.01 ± 0.021
95 | TGGCGTTAGG | 0.977 ± 0.019
96 | TGGCTCTGGG | 1.04 ± 0.033
97 | TGGCTGCCGT | 0.988 ± 0.032
98 | TGGCTGGGGG | 1.09 ± 0.1
99 | TGGGAAAAAA | 0.985 ± 0.035
100 | TGGGAAAACG | 1.05 ± 0.078

Row | Sequence | switch fluorescence ratio
101 | TGGGAAAAGG | 1.16 ± 0.31
102 | TGGGAAATAC | 2.11 ± 0.12
103 | TGGGAAATCG | 1.03 ± 0.014
104 | TGGGAACGAG | 1.01 ± 0.017
105 | TGGGAACGTC | 1.0205 ± 2.8e-05
106 | TGGGAACTTG | 0.991 ± 0.028
107 | TGGGAATAAT | 1.03 ± 0.031
108 | TGGGAATCAC | 1.05 ± 0.017
109 | TGGGAATGAA | 0.992 ± 0.021
110 | TGGGAATGGC | 0.9555 ± 0.0094
111 | TGGGAATTTC | 1.035 ± 0.0034
112 | TGGGACAAGC | 0.979 ± 0.032
113 | TGGGACAGCG | 0.957 ± 0.031
114 | TGGGACCCAT | 1.02 ± 0.055
115 | TGGGACCGGG | 1 ± 0.059
116 | TGGGACCTGG | 1.07 ± 0.15
117 | TGGGACGGGG | 0.984 ± 0.025
118 | TGGGACTGTA | 1.14 ± 0.073
119 | TGGGAGGTTG | 0.994 ± 0.04
120 | TGGGAGTAGC | 0.9907 ± 0.0091
121 | TGGGAGTTTC | 0.978 ± 0.01
122 | TGGGAGTTTT | 1.02 ± 0.047
123 | TGGGATAGAA | 0.996 ± 0.019
124 | TGGGATATA | 1.01 ± 0.056
125 | TGGGATCAGT | 0.99 ± 0.021

Row | Sequence | switch fluorescence ratio
126 | TGGGATGTTA | 0.9872 ± 0.0074
127 | TGGGATTGAC | 1.06 ± 0.019
128 | TGGGATTTGA | 0.993 ± 0.023
129 | TGGGATTTTG | 1.014 ± 0.0028
130 | TGGGCAGATA | 1.08 ± 0.1
131 | TGGGCAGGCA | 1 ± 0.028
132 | TGGGCAGGGT | 1.02 ± 0.016
133 | TGGGCATAAA | 1.006 ± 0.0012
134 | TGGGCGCATT | 1.68 ± 0.88
135 | TGGGCGCCGT | 0.957 ± 0.017
136 | TGGGCGGGGA | 1.03 ± 0.048
137 | TGGGCTAAGC | 1.03 ± 0.028
138 | TGGGCTCGCC | 1 ± 0.025
139 | TGGGCTGTTT | 1.012 ± 0.01
140 | TGGGCTTAAG | 1.02 ± 0.026
141 | TGGGCTTCGT | 0.994 ± 0.038
142 | TGGGGAAACG | 0.9455 ± 0.0068
143 | TGGGGAATTG | 0.969 ± 0.053
144 | TGGGGAGAAA | 1 ± 0.031
145 | TGGGGAGGCT | 1.04 ± 0.055
146 | TGGGGAGGGC | 1 ± 0.035
147 | TGGGGATACC | 0.987 ± 0.035
148 | TGGGGATAGG | 1.01 ± 0.022
149 | TGGGGATCGG | 0.973 ± 0.025
150 | TGGGGATTAA | 0.991 ± 0.013

Row | Sequence | switch fluorescence ratio
151 | TGGGGATTTA | 1.003 ± 0.0072
152 | TGGGGCACAT | 1.02 ± 0.022
153 | TGGGGCCCCG | 1 ± 0.013
154 | TGGGGCCGTG | 1.04 ± 0.04
155 | TGGGGCGAAA | 0.997 ± 0.089
156 | TGGGGCGAGG | 1.01 ± 0.014
157 | TGGGGCTAGG | 0.993 ± 0.018
158 | TGGGGCTGGT | 0.99 ± 0.018
159 | TGGGGCTTGG | 1.01 ± 0.051
160 | TGGGGGAATT | 1 ± 0.029
161 | TGGGGGACCC | 1 ± 0.061
162 | TGGGGGAGGG | 1 ± 0.054
163 | TGGGGGATG | 0.971 ± 0.018
164 | TGGGGGCGCG | 0.984 ± 0.042
165 | TGGGGGCTTG | 0.993 ± 0.024
166 | TGGGGGGACT | 1.02 ± 0.029
167 | TGGGGGGATC | 1.009 ± 0.0082
168 | TGGGGGGG | 1 ± 0.024
169 | TGGGGGGGA | 1.03 ± 0.031
170 | TGGGGGGGCT | 1.02 ± 0.036
171 | TGGGGGGTTA | 0.995 ± 0.024
172 | TGGGGGTAAT | 0.992 ± 0.029
173 | TGGGGGTACG | 1.028 ± 0.0016
174 | TGGGGGTAGG | 1.01 ± 0.027
175 | TGGGGGTGAG | 1 ± 0.029

Row | Sequence | switch fluorescence ratio
176 | TGGGGGTGCA | 1.01 ± 0.035
177 | TGGGGGTGGC | 1.01 ± 0.052
178 | TGGGGGTGGG | 1.02 ± 0.044
179 | TGGGGGTGTA | 1.05 ± 0.039
180 | TGGGGGTTTA | 1.03 ± 0.019
181 | TGGGGTACAT | 0.991 ± 0.016
182 | TGGGGTAGCA | 1.01 ± 0.029
183 | TGGGGTAGTT | 0.995 ± 0.01
184 | TGGGGTATGT | 1 ± 0.031
185 | TGGGGTCAAA | 0.995 ± 0.036
186 | TGGGGTCATG | 0.9887 ± 0.0096
187 | TGGGGTGGTG | 0.9992 ± 0.0038
188 | TGGGGTGTGG | 1.23 ± 0.36
189 | TGGGGTGTTG | 0.983 ± 0.011
190 | TGGGGTTCGA | 0.975 ± 0.024
191 | TGGGGTTGTA | 1.01 ± 0.056
192 | TGGGGTTGTT | 0.985 ± 0.033
193 | TGGGGTTTGA | 0.997 ± 0.032
194 | TGGGTAACGA | 0.962 ± 0.021
195 | TGGGTAATCC | 1.03 ± 0.025
196 | TGGGTACTTT | 0.994 ± 0.016
197 | TGGGTAGGAT | 1.02 ± 0.018
198 | TGGGTAGGGA | 0.9759 ± 0.0093
199 | TGGGTAGTGT | 1 ± 0.026
200 | TGGGTATCTT | 1.03 ± 0.061
